Molecular target: GRIP (full length, 1112 amino acids, 130 kDa protein) (rat)

GluR1 Clusters (synaptic AMPA receptor clusters in transfected spinal cord neurons) (GluR1 Clusters)	Substance
3.6	myc-tagged GluR1C (C-terminal 50 amino acids of the GluR1 subunit, transfected into neurons) (receptor)
1.2	myc-tagged GluR2C (C-terminal 50 amino acids of the GluR2 subunit, transfected into neurons) (from UniProt P19491) (receptor)
2.9	myc-tagged GluR2C Δ7 (GluR2 C-terminus lacking the last 7 amino acids, transfected into neurons) (from UniProt P19491) (receptor)
